The results in this text go back to patent US20240101668A1 (WUGEN, published 2024).

Substitutions are numbered along the chain they refer to.

B1: Polypeptide No. 9 (scFv, V domains shown)
VH: QVQLVQSGAEVKKPGSSVKVSCKASGGTFSSDAINWVRQAPGQGLEWMGGFDPEDGETIYAQKFQGRVTITADESTSTAYMELSSLRSEDTAVYYCARGPSGYDFEFDYWGQGTLVTVSS
VL: DIQMTQSPSSLSASVGDRVTITCRSSRNISHWLAWYQQKPGKAPKLLIYKASSLESGVPSRFSGSGSGTDFTLTISSLQPEDFATYYCQQAISFPLTFGGGTKVEIKR
notes: scFv
B2: Polypeptide No. 7 (scFv, V domains shown)
VH: QVQLVQSGAEVKKPGASVKVSCKASGYTFTDYYMHWVRQAPGQGLEWMGWINPNSGGTNYAQKFQGRVTMTRDTSTSTVYMELSSLRSEDTAVYYCARDSRIAVAASSFDYWGQGTLVTVSS
VL: DIQMTQSPSSLSASVGDRVTITCRASRGINNWLTWYQQKPGKAPKLLIYGASSLQSGVPSRFSGSGSGTDFTLTISSLQPEDFATYYCQQSYRIPYTFGQGTKLEIKR
notes: scFv
B3: Polypeptide No. 8 (scFv, V domains shown)
VH: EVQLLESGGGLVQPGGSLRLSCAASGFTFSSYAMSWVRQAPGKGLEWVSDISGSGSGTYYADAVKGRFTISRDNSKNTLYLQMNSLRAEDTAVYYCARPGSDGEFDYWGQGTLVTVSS
VL: DIQMTQSPSSLSASVGDRVTITCRASQSVSSFLNWYQQKPGKAPKLLIYAASSLQSGVPSRFSGSGSGTDFTLTISSLQPEDFATYYCQQSYTTPLTFGQGTKVEIKR
notes: scFv
B4: Polypeptide No. 11 (scFv, V domains shown)
VH: QVQLVQSGAEVKKPGASVKVSCKASGDTFTNHYMHWVRQAPGQGLEWMGWINPNSGGTNYAQKFQGRVTMTRDTSTSTVYMELSSLRSEDTAVYYCARDLVPAAVGGYFDYWGQGTLVTVSS
VL: B3 VL with V29L, S30G, F32W, N34A, S91A, Y92N, T93S, T94F
notes: scFv
B5: Polypeptide No. 10 (scFv, V domains shown)
VH: QVQLVQSGAEVKKPGASVKVSCKASGDTFTTYAISWVRQAPGQGLEWMGWINPNSGVATYANKFQGRVTMTRDTSTSTVYMELSSLRSEDTAVYYCAREGIVGATDAFDIWGQGTMVTVSS
VL: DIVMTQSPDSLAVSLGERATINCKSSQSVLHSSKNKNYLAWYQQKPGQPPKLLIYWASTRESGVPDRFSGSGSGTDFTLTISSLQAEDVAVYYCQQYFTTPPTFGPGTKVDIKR
notes: scFv
B6: Polypeptide No. 5 (scFv, V domains shown)
VH: QVQLVQSGAEVKKPGASVKVSCKASGNTFTSYGISWVRQAPGQGLEWMGWINPNSGGTKYAQKFQGRVTMTRDTSTSTVYMELSSLRSEDTAVYYCARESWFGELYYGMDVWGKGTTVTVSS
VL: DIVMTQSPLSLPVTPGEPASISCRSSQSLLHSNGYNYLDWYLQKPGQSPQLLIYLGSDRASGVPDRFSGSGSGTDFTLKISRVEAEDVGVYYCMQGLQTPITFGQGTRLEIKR
notes: scFv
B7: Polypeptide No. 6 (scFv, V domains shown)
VH: QVQLVQSGAEVKKPGASVKVSCKASGYTFTAYYTHWVRQAPGQGLEWMGWMNPNSGHTSYAQKFQGRVTMTRDTSTSTVYMELSSLRSEDTAVYYCAREAYDSFDYWGQGTLVTVSS
VL: DIQMTQSPSSLSASVGDRVTITCRASQSISSYLNWYQQKPGKAPKLLIYEASTLETGVPSRFSGSGSGTDFTLTISSLQPEDFATYYCQQANSFPFTFGPGTKVDIKR
notes: scFv

T2 sequence (P20138 18-364): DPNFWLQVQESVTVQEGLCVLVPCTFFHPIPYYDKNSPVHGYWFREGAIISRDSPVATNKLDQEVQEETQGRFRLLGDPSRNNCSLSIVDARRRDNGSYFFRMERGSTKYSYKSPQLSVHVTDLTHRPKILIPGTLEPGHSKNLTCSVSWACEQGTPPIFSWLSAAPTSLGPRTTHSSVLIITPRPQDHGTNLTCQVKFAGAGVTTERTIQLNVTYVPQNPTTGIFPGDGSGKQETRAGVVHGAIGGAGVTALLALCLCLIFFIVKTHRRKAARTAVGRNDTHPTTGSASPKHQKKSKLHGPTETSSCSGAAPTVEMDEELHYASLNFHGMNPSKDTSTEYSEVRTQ
T3 sequence (P20138 18-364 R69G): as the sequence (P20138 18-364) above, with R52G counted along it

For one assay, the target named is T1, huCD33-G69-Fc recombinant protein (human, UniProt P20138 18-259).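 Note: scFvs from periplasmic extracts captured on biosensors via anti-V5 antibody, exposed to recombinant huCD33 variants for 2 min, 5 min dissociation, scored as binding, no binding or ambiguous.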
T1 construct: extracellular domain; also called CD33 R69G
T1 sequence (P20138 18-259 R69G): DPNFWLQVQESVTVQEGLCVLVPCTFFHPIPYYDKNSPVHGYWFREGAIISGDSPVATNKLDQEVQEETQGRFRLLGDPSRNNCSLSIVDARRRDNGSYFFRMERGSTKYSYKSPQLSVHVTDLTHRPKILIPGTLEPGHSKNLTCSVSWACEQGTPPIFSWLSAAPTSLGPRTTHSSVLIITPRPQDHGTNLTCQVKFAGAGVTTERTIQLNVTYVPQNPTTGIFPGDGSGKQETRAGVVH
Kind of assay: BLI. On the technique in general: In BLI a coated tip is dipped into the sample, and binding shifts an interference pattern.
As for B1, the binding result is “no binding”.
On the same count and under the same terms, next, B2: “no binding”; B3: “no binding”; B4: “no binding”.
On to B5, for which the binding result is on record as “no binding”.
Turning to B6, the binding result is recorded as “no binding”.
B7: the binding result is given as “no binding”.

The next assay has as its target T2, huCD33-R69 stably expressed on Jurkat cells (human, UniProt P20138 18-364).
T2 construct: whole, on cells; >200,000 receptors per cell; also called CD33 WT; CD33^ARG69
Put plainly: FACS on cells.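 Note: fixed Jurkat cells bearing either CD33 variant, barcoded by dye, exposed to myc-tagged scFv periplasmic extracts, detected with anti-myc PE antibody and read by flow cytometry.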
Method: (§1) Jurkat cells were engineered to stably express either the huCD33-R69 or huCD33-G69 variant at >200,000 receptors per cell. Parental, huCD33-R69, and huCD33-G69 Jurkat cell lines were stained with differing levels of CellTrace Violet Cell Proliferation Kit (ThermoFisher, cat. #C34557) to barcode each cell line. Barcoded Jurkat cell lines were fixed with paraformaldehyde and incubated with myc-labeled scFv periplasmic extracts and a secondary anti-myc PE-conjugated monoclonal antibody. Appropriate positive and negative controls were used. Stained cells were analyzed by flow cytometry (CytoFLEX, Beckman Coulter, Inc.) and binding was assessed by change in PE mean fluorescence intensity (MFI) of the barcoded cell populations.
Regarding B1, the “geometric mean MFI fold change over Jurkat parental” value (“geometric mean MFI fold change” below) fell in the range of 2 to 10 fold.
For B2, the “geometric mean MFI fold change” value was in the range of 10 to 30 fold.
The same measure, in the same setting: next, B3: 10 to 30 fold; B4: 2 to 10 fold.
Consider B5, for which the “geometric mean MFI fold change” value was in the range of 2 to 10 fold.
For the molecule B6, the “geometric mean MFI fold change” value is > 30 fold.
The same measure, in the same setting: next, B7: > 30 fold.

The next assay concerns the target T3, huCD33-G69 stably expressed on Jurkat cells (human, UniProt P20138 18-364).
T3 construct: whole, on cells; >200,000 receptors per cell; also called CD33 Mutant; CD33 R69G
Put plainly: FACS on cells.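 Note: fixed Jurkat cells bearing either CD33 variant, barcoded by dye, exposed to myc-tagged scFv periplasmic extracts, detected with anti-myc PE antibody and read by flow cytometry.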
Method: as §1
Turning to B1, the “geometric mean MFI fold change” value was < 2 fold.
As for B2, the “geometric mean MFI fold change” value is < 2 fold.
Same read-out and setting: next, B3: < 2 fold; B4: < 2 fold; B5: < 2 fold.
In the case of B6, the “geometric mean MFI fold change” value was < 2 fold.
As to B7, the “geometric mean MFI fold change” value was < 2 fold.
